Experimental data reported in patent US10023882B1, “Hetero-oligomers of (S)-carbonyl reductases and their applications in catalyzing reduction of polyphenyl ketones” (Jiangnan University, priority 2017, dated 2018).
“Also recorded” adds a separate entry of the source.

Legend:
[1] = Reductive activity assay towards 2-acetonaphthone (NADPH oxidation, absorbance at 340 nm); type: biochemical; settings: purified enzyme, 0.5 mM NADPH, 1 mM substrate, 30° C.
Method: (§1) (1) Principle and definition: The enzyme activity for the reduction of prochiral ketones to chiral alcohols by homo-oligomers was determined with purified enzymes by measuring the decrease in absorbance at 340 nm resulting from the oxidation of NADPH. Protein concentration was determined by Beyotime (Shanghai, China) using bovine serum albumin as a standard.
(§2) (2) Enzyme activity assay conditions (250 ul): 0.5 mmol·L^−1 NADPH, 1 mmol·L^−1 substrate (2,4-dichlorobenzophenone, 2-naphthyl ketone, or [(E)-2-[3-[3-[2-(7-chloro-2-quinolinyl)ethenyl]phenyl]-3-oxopropyl]benzoic acid methyl ester (Keto Easter M).). Incubate the mixture at 30° C. for 2 min, then add appropriate amount of enzyme, and finally measure the absorbance at 340 nm wavelength.
(§3) Formula for calculating enzyme activity is: Enzyme activity (U)=EW×V×10^3/(6220×0.15), and formula for calculating relative enzyme activity is: relative enzyme activity (U/mg)=enzyme activity (U)/protein content (mg), wherein EW is the measured change of absorbance at 340 nm in 1 min; V is the reaction volume (mL); the molar absorption coefficient (L mol^−1 cm^−1) is 6220; and the optical length is 0.15 cm.
(§4) One unit of the enzyme activity is defined as the amount of enzyme catalyzing the formation and oxidation of 1 μmol of NAD(P)H per minute under measurement conditions.
(§5) Enzyme activity assay system (250 ul) contained 0.5 mM NADPH, 1 mM substrate (i.e. 2-acetonaphthone) and appropriate amount of enzyme. The reaction mixture was incubated at 30° C. for 2 min, the appropriate amount of enzyme was added, and finally the absorption change was scanned at 340 nm wavelength. The calculated relative enzyme activity of SCR/SCR2 was 2.43 U/mg towards 2-acetonaphthone.

[2] = Reductive activity assay towards Keto Easter M (NADPH oxidation, absorbance at 340 nm); type: biochemical; settings: purified enzyme, 0.5 mM NADPH, 1 mM substrate, 30° C.
Method: as §1, §2, §3, §4
as §5, with “[(E)-2-[3-[3-[2-(7-chloro-2-quinolinyl)ethenyl]phenyl]-3-oxopropyl]benzoic acid methyl ester (Keto Easter M)” for “2-acetonaphthone)”, “and SCR2/SCR3 were 0.86 U/mg and 1.21” for “was 2.43”, “[(E)-2-[3-[3-[2-(7-chloro-2-quinolinyl)ethenyl]phenyl]-3-oxopropyl]benzoic acid methyl ester (Keto Easter M), respectively.” for “2-acetonaphthone.”

[3] = biological target: T1, His-SCR3, (S)-carbonyl reductase SCR3 of Candida parapsilosis with N-terminal His-tag, expressed from pET28-His-SCR3
T1 chain: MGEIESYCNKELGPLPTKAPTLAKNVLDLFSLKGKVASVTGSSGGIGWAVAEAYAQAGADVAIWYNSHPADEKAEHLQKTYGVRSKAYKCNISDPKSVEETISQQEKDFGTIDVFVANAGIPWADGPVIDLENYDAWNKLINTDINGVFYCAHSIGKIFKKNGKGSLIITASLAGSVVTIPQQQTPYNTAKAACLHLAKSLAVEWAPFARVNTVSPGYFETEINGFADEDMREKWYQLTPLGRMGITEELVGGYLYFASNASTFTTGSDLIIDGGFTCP

[4] = Reductive activity assay towards 2,4-dichlorobenzophenone (NADPH oxidation, absorbance at 340 nm); type: biochemical; settings: purified enzyme, 0.5 mM NADPH, 1 mM substrate, 30° C.
Method: as §1, §2, §3, §4
Enzyme activity assay system (250 ul) contained 0.5 mM NADPH, 1 mM substrate (i.e. 2,4-dichlorobenzophenone) and appropriate amount of enzyme. The reaction mixture was incubated at 30° C. for 2 min, the appropriate amount of enzyme was added, and finally the absorption change was scanned at 340 nm wavelength. The calculated relative enzyme activity of SCR/SCR2 and SCR2/SCR3 were 4.55 U/mg and 4.42 U/mg towards 2,4-dichlorobenzophenone, respectively.

[5] = biological target: T2, His-SCR2, (S)-carbonyl reductase SCR2 of Candida parapsilosis with N-terminal His-tag, expressed from pET28-His-SCR2
T2 chain: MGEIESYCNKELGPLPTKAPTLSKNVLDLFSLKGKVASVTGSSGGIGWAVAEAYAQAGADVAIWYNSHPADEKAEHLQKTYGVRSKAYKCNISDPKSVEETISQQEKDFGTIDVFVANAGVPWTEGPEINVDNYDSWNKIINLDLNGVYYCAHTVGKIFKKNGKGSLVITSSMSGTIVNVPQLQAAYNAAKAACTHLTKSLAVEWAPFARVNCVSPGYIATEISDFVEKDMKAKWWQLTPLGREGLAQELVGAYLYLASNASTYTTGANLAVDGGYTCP

[6] = biological target: T3, SCR3, (S)-carbonyl reductase of Candida parapsilosis, as in the hetero-oligomer SCR/SCR3
T3 chain: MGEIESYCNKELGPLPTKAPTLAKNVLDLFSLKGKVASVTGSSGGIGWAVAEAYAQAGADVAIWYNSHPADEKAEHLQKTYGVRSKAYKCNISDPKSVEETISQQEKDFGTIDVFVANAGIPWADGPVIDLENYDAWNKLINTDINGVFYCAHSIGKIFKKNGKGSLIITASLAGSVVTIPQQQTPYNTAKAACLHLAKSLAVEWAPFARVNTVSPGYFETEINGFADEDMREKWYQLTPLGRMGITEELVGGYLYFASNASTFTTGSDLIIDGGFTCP

[7] = biological target: T4, SCR3, (S)-carbonyl reductase of Candida parapsilosis, as in the hetero-oligomer SCR/SCR3 (Candida parapsilosis, UniProt G8BHG5 1-279); test: method not described for this pair
T4 sequence: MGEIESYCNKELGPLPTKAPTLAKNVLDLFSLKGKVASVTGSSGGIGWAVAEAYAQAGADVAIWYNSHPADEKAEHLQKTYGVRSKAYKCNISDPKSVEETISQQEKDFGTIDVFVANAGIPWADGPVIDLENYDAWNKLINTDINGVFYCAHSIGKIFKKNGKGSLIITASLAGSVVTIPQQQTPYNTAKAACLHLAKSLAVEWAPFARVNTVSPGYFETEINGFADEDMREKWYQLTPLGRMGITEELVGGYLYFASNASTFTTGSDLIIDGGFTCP

Molecule	relative enzyme activity (specific activity) towards 2-acetonaphthone [1]	relative enzyme activity (specific activity) towards Keto Easter M [2]	relative enzyme activity (specific activity) towards 2,4-dichlorobenzophenone [4]	further results
Strep-SCR2, (S)-carbonyl reductase SCR2 of Candida parapsilosis with N-terminal Strep-tag, expressed from pET21-Strep-SCR2 (protein) MGEIESYCNKELGPLPTKAPTLSKNVLDLFSLKGKVASVTGSSGGIGWAVAEAYAQAGADVAIWYNSHPADEKAEHLQKTYGVRSKAYKCNISDPKSVEETISQQEKDFGTIDVFVANAGVPWTEGPEINVDNYDSWNKIINLDLNGVYYCAHTVGKIFKKNGKGSLVITSSMSGTIVNVPQLQAAYNAAKAACTHLTKSLAVEWAPFARVNCVSPGYIATEISDFVEKDMKAKWWQLTPLGREGLAQELVGAYLYLASNASTYTTGANLAVDGGYTCP	no specific activity is observed; also recorded: no enzyme activities were detected	no specific activity is observed; also recorded: no enzyme activities were detected	no specific activity is observed; also recorded: no enzyme activities were detected	relative enzyme activity towards 2,4-dichlorobenzophenone [3]: 4.42 U/mg; relative enzyme activity towards [(E)-2-[3-[3-[2-(7-chloro-2-quinolinyl)ethenyl]phenyl]-3-oxopropyl]benzoic acid methyl ester (Keto Easter M) [3]: 1.21 U/mg
Strep-SCR, (S)-carbonyl reductase SCR of Candida parapsilosis with N-terminal Strep-tag, expressed from pET21-Strep-SCR (protein) MGEIESYCNKELGPLPTKAPTLSKNVLDLFSLKGKVASVTGSSGGIGWAVAEAYAQAGADVAIWYNSHPADEKAEHLQKTYGVHSKAYKCNISDPKSVEETISQQEKDFGTIDVFVANAGVTWTQGPEIDVDNYDSWNKIISVDLNGVYYCSHNIGKIFKKNGKGSLIITSSISGKIVNIPQLQAPYNTAKAACTHLAKSLAIEWAPFARVNTISPGYIDTDITDFASKDMKAKWWQLTPLGREGLTQELVGGYLYLASNASTFTTGSDVVIDGGYTCP				relative enzyme activity towards 2,4-dichlorobenzophenone [5]: 4.55 U/mg; relative enzyme activity towards 2-acetonaphthone [5]: 2.43 U/mg; relative enzyme activity towards [(E)-2-[3-[3-[2-(7-chloro-2-quinolinyl)ethenyl]phenyl]-3-oxopropyl]benzoic acid methyl ester (Keto Easter M) [5]: 0.86 U/mg
SCR: homo-oligomer (S)-carbonyl reductase from Candida parapsilosis, amino acid sequence SEQ ID NO: 1 (protein, listed as Candida parapsilosis) MGEIESYCNKELGPLPTKAPTLSKNVLDLFSLKGKVASVTGSSGGIGWAVAEAYAQAGADVAIWYNSHPADEKAEHLQKTYGVHSKAYKCNISDPKSVEETISQQEKDFGTIDVFVANAGVTWTQGPEIDVDNYDSWNKIISVDLNGVYYCSHNIGKIFKKNGKGSLIITSSISGKIVNIPQLQAPYNTAKAACTHLAKSLAIEWAPFARVNTISPGYIDTDITDFASKDMKAKWWQLTPLGREGLTQELVGGYLYLASNASTFTTGSDVVIDGGYTCP	no specific activity is observed; also recorded: no enzyme activities were detected	no specific activity is observed; also recorded: no enzyme activities were detected	no specific activity is observed; also recorded: no enzyme activities were detected	
SCR, (S)-carbonyl reductase of Candida parapsilosis, as in the hetero-oligomer SCR/SCR3 (enzyme) MGEIESYCNKELGPLPTKAPTLSKNVLDLFSLKGKVASVTGSSGGIGWAVAEAYAQAGADVAIWYNSHPADEKAEHLQKTYGVHSKAYKCNISDPKSVEETISQQEKDFGTIDVFVANAGVTWTQGPEIDVDNYDSWNKIISVDLNGVYYCSHNIGKIFKKNGKGSLIITSSISGKIVNIPQLQAPYNTAKAACTHLAKSLAIEWAPFARVNTISPGYIDTDITDFASKDMKAKWWQLTPLGREGLTQELVGGYLYLASNASTFTTGSDVVIDGGYTCP				activities to polyphenyl ketones [6]: also showed some activities to polyphenyl ketones; binding result [7]: binds
SCR3: homo-oligomer (S)-carbonyl reductase from Candida parapsilosis, amino acid sequence SEQ ID NO: 3 (protein, listed as Candida parapsilosis) MGEIESYCNKELGPLPTKAPTLAKNVLDLFSLKGKVASVTGSSGGIGWAVAEAYAQAGADVAIWYNSHPADEKAEHLQKTYGVRSKAYKCNISDPKSVEETISQQEKDFGTIDVFVANAGIPWADGPVIDLENYDAWNKLINTDINGVFYCAHSIGKIFKKNGKGSLIITASLAGSVVTIPQQQTPYNTAKAACLHLAKSLAVEWAPFARVNTVSPGYFETEINGFADEDMREKWYQLTPLGRMGITEELVGGYLYFASNASTFTTGSDLIIDGGFTCP	no specific activity is observed; also recorded: no enzyme activities were detected	no specific activity is observed; also recorded: no enzyme activities were detected	no specific activity is observed; also recorded: no enzyme activities were detected	
